ZIKV binding Abs 450 nm and % of Zika virus Neutralized (Vero infectivity assay), antibody data for 1 molecule are collected here from US20190324040A1.

The target of test [1] is Zika virus (ZIKV), whole virus particles (Zika virus). Nature of the test: virus capture ELISA.
Test [2] shares this target. The experiment in a line: cell-based or functional assay.

B1: CC4 mAb (P1604) (antibody, V domains shown)
VH: VQLVQESGPGPVKPSETLSLTCTVSGGSISSYYWSWIRQPAGKGLEWIGRIYTSGSTNYNPSLKSRVTMSVDTSKNQFSLKLSSVTAADTAVYYCARESGSLYMDVWGKGTAVTVSS
VL: DVVMTQSPATLSLPPGERATLSCRASQSVSSYLAWYQQKPGQAPRLLIYDASNRATGIPARFSGSGSGTDFTLTISSLEPEDFAVYYCQQRSNWPLTFGGGTKVDIK
Turning to B1, the ZIKV binding Abs 450 nm in test [1] came to 0.87 Abs 450 nm. In test [2], this molecule registered a % of Zika virus Neutralized (Vero infectivity assay), antibody at 4 µg/ml of 19.3%.
